Test results taken from US20110104179A1.

Experiments:
Assay in all cases: cell-based or functional assay
[1] = molecular target: Arg- and Lys-specific proteinases of P. gingivalis ATCC 33277 whole cells (DQ BSA assay) (Porphyromonas gingivalis ATCC 33277)
[2] = molecular target: Arg-gingipains of P. gingivalis ATCC 33277 whole cells (Porphyromonas gingivalis ATCC 33277)
[3] = molecular target: Lys-gingipain (Kgp) of P. gingivalis ATCC 33277 whole cells (Porphyromonas gingivalis ATCC 33277) (UniProt B2RLK2)

Substance: Non-glycosylated κ-casein(106-169) (from UniProt P02668 127-190) (peptide)
- inhibition of proteinase activity against fluorescent BSA (DQ Green BSA), whole ATCC 33277 cells, peptide 500 µM [1]: 60 % inhibition

Substance: αS1-casein(11-23) (peptide)
- Activity with ATCC33277, Arg-gingipains, peptide 100 µM alone (no inhibitor 29.23 + 0.06) [2]: 18
- Protease activity (%), Arg assay, ATCC 33277 whole cell, peptide 100 µM [2]: 62%
- Protease activity (%), Arg assay, ATCC 33277 whole cell, peptide 200 µM [2]: 39%
- Protease activity (%), Arg assay, ATCC 33277 whole cell, peptide 300 µM [2]: 38%
- inhibition of Arg-specific proteolytic activity, whole cells, peptide 100 µM alone [2]: 40 % inhibition
- inhibition of Arg-specific proteolytic activity, whole cells, peptide and ZnCl2 in a 1:4 ratio [2]: 70 % inhibition
- Protease activity (%), Lys assay, ATCC 33277 whole cell, peptide 100 µM [3]: 64%
- Protease activity (%), Lys assay, ATCC 33277 whole cell, peptide 200 µM [3]: 43%
- Protease activity (%), Lys assay, ATCC 33277 whole cell, peptide 300 µM [3]: 34%
- inhibition in the Lys-specific protease assays, whole cells, inhibitor mixture with ZnCl2 [3]: 85 % inhibition

Substance: β-casein(193-205) (peptide)
- inhibition of whole cell Arg-specific proteolytic activity, peptide 200 µM [2]: 15 % inhibition

Substance: β-casein(193-209) (peptide)
- Activity with ATCC33277, Arg-gingipains, peptide 100 µM alone (no inhibitor 29.23 + 0.06) [2]: 20
- Protease activity (%), Arg assay, ATCC 33277 whole cell, peptide 100 µM [2]: 69%
- Protease activity (%), Arg assay, ATCC 33277 whole cell, peptide 200 µM [2]: 50%
- Protease activity (%), Arg assay, ATCC 33277 whole cell, peptide 300 µM [2]: 50%
- inhibition of Arg-specific proteolytic activity, whole cells, peptide 100 µM alone [2]: 30 % inhibition
- inhibition of Arg-specific proteolytic activity, whole cells, peptide and ZnCl2 in a 1:4 ratio [2]: 70 % inhibition
- Protease activity (%), Lys assay, ATCC 33277 whole cell, peptide 100 µM [3]: 71%
- Protease activity (%), Lys assay, ATCC 33277 whole cell, peptide 200 µM [3]: 59%
- Protease activity (%), Lys assay, ATCC 33277 whole cell, peptide 300 µM [3]: 49%
- inhibition in the Lys-specific protease assays, whole cells, peptide: ZnCl2 mixture [3]: 90 % inhibition

Substance: κ-casein(106-137) (from UniProt P02668 127-158) (peptide)
- inhibition of protease activity in the fluorescence assay (DQ Green BSA), whole ATCC 33277 cells, peptide 500 µM [1]: 37 % inhibition

Substance: κ-casein(109-137) (peptide; modification not given)
- Protease activity (%), Arg assay, ATCC 33277 whole cell, peptide 50 µM [2]: 84%
- Protease activity (%), Arg assay, ATCC 33277 whole cell, peptide 100 µM [2]: 36%

Substance: κ-casein(117-123) (peptide)
- Arg-Specific Activity (%), ATCC 33277 whole cells, BApNA, peptide 200 µM [2]: 111%
- Arg-Specific Activity (%), ATCC 33277 whole cells, BApNA, peptide 500 µM [2]: 90%
- Arg-Specific Activity (%), ATCC 33277 whole cells, BApNA, peptide 1000 µM [2]: 92%

Substance: κ-casein(127-137) (peptide)
- Arg-Specific Activity (%), ATCC 33277 whole cells, BApNA, peptide 200 µM [2]: 102%
- Arg-Specific Activity (%), ATCC 33277 whole cells, BApNA, peptide 500 µM [2]: 97%
- Arg-Specific Activity (%), ATCC 33277 whole cells, BApNA, peptide 1000 µM [2]: 82%
